We go through 167 variants from the Human Domainome abundance scans (Beltran et al. 2025).

The labels stand for the following.
B1: POU domain, class 4, transcription factor 3, residues 185 to 256; numbered along this chain, Q15319 (parent)
chain: RELEAFAERFKQRRIKLGVTQADVGAALANLKIPGVGSLSQSTICRFESLTLSHNNMIALKPVLQAWLEEAE

± gives the uncertainty stated by the source.

Variants of B1 are the subject of the data set. Put plainly: abundance fitness (aPCA) (normalised: wild type 0, dead -1); higher = more abundant; growth selection in yeast, the domain comes from the species named. Conditions: Homo sapiens.
Consider G18K, for which the abundance fitness is -0.296 ± 0.15.

As for G18F, the abundance fitness is -0.784 ± 0.14.

Take G18A: the abundance fitness was -0.43 ± 0.12.

Consider G18N, for which the abundance fitness was -0.205 ± 0.33.

Consider Q12I, for which the abundance fitness is -0.172 ± 0.089.

Turning to S38A, the abundance fitness was -0.346 ± 0.23.

As for S38T, the abundance fitness turned out to be 0.017 ± 0.03.

Consider S38C, for which the abundance fitness is -0.27 ± 0.21.

Consider S38W, for which the abundance fitness was -0.389 ± 0.22.

With R14N, the abundance fitness is -1.02 ± 0.25.

Turning to R14V, the abundance fitness is -0.759 ± 0.071.

Consider R14C, for which the abundance fitness was -0.887 ± 0.13.

For Q65S, the abundance fitness was -0.127 ± 0.3.

On to Q65C, for which the abundance fitness was -0.1 ± 0.21.

On to T43F, for which the abundance fitness was -0.425 ± 0.17.

For the variant T43D, the abundance fitness is -0.29 ± 0.24.

For T43P, the abundance fitness was -0.836 ± 0.064.

Turning to T43K, the abundance fitness is -0.153 ± 0.096.

Take T43A: the abundance fitness is -0.148 ± 0.055.

In the case of T43N, the abundance fitness is -0.746 ± 0.21.

T43Q: the abundance fitness was -0.105 ± 0.14.

With I15K, the abundance fitness is -0.052 ± 0.094.

For I15P, the abundance fitness was -0.915 ± 0.36.

Regarding I15L, the abundance fitness was -0.088 ± 0.044.

In the case of F47T, the abundance fitness was -0.94 ± 0.19.

With F47I, the abundance fitness is -0.836 ± 0.17.

As for F47M, the abundance fitness is -0.543 ± 0.09.

As to F47A, the abundance fitness is -0.866 ± 0.14.

For the variant F47H, the abundance fitness is -1.06 ± 0.33.

As to V19T, the abundance fitness was -0.192 ± 0.039.

For the variant V19P, the abundance fitness was -0.835 ± 0.048.

With V19K, the abundance fitness worked out at 0.078 ± 0.029.

Consider L31G, for which the abundance fitness was -0.59 ± 0.42.

Take L31S: the abundance fitness is -0.094 ± 0.16.

Regarding L31T, the abundance fitness is -0.094 ± 0.48.

L31A: the abundance fitness amounted to 0.204 ± 0.23.

As for K11I, the abundance fitness was -0.123 ± 0.055.

Turning to K11Q, the abundance fitness was -0.136 ± 0.091.

In the case of K11T, the abundance fitness is -0.276 ± 0.097.

As to W67S, the abundance fitness is -0.684 ± 0.14.

Turning to W67H, the abundance fitness is -0.795 ± 0.11.

With W67L, the abundance fitness is -0.549 ± 0.052.

With W67T, the abundance fitness is -0.697 ± 0.11.

With V24Y, the abundance fitness was -0.962 ± 0.11.

In the case of V24E, the abundance fitness is -1.04 ± 0.23.

For V24C, the abundance fitness was -0.223 ± 0.046.

On to V24P, for which the abundance fitness was -0.842 ± 0.044.

As for V24T, the abundance fitness is -0.565 ± 0.035.

On to V24F, for which the abundance fitness was -0.709 ± 0.036.

Regarding K16C, the abundance fitness was determined as 0.017 ± 0.051.

On to K16S, for which the abundance fitness worked out at 0.011 ± 0.027.

As to K16P, the abundance fitness was -0.968 ± 0.049.

Consider V36G, for which the abundance fitness is -0.242 ± 0.2.

On to V36H, for which the abundance fitness is -0.072 ± 0.093.

For V36I, the abundance fitness was 0.117 ± 0.097.

Consider V36Y, for which the abundance fitness was -0.121 ± 0.19.

In the case of V36P, the abundance fitness was -0.398 ± 0.06.

For the variant V36L, the abundance fitness is -0.011 ± 0.043.

As for S40L, the abundance fitness is -0.488 ± 0.082.

Take S40V: the abundance fitness was -0.354 ± 0.08.

Consider S40P, for which the abundance fitness was -0.154 ± 0.064.

As to S40N, the abundance fitness is -0.183 ± 0.2.

As to S40M, the abundance fitness was -0.29 ± 0.12.

On to A71E, for which the abundance fitness is -0.103 ± 0.05.

Take A71M: the abundance fitness was -0.106 ± 0.026.

Take A71W: the abundance fitness is -0.281 ± 0.056.

Consider A71N, for which the abundance fitness is -0.032 ± 0.036.

On to A71G, for which the abundance fitness is -0.226 ± 0.03.

In the case of L50G, the abundance fitness worked out at 0.043 ± 0.034.

With L50W, the abundance fitness was -0.717 ± 0.21.

As for L50S, the abundance fitness amounted to 0.041 ± 0.22.

L50A: the abundance fitness stood at 0.068 ± 0.039.

Turning to L50E, the abundance fitness is -0.154 ± 0.063.

As for L17R, the abundance fitness was -0.543 ± 0.37.

Take L17Y: the abundance fitness is -0.448 ± 0.14.

Consider L17I, for which the abundance fitness is -0.359 ± 0.22.

As to L17H, the abundance fitness is -0.871 ± 0.24.

With R46H, the abundance fitness was -0.056 ± 0.091.

Consider R46A, for which the abundance fitness turned out to be 0.031 ± 0.061.

Take R46P: the abundance fitness is -1.17 ± 0.14.

As for N55S, the abundance fitness is -0.061 ± 0.23.

Regarding M57T, the abundance fitness was -0.174 ± 0.096.

As for M57R, the abundance fitness is -0.524 ± 0.089.

Consider M57L, for which the abundance fitness was -0.045 ± 0.42.

As for L28Y, the abundance fitness is -0.49 ± 0.23.

Regarding L28R, the abundance fitness is -1.06 ± 0.47.

For the variant L28E, the abundance fitness was -0.985 ± 0.27.

On to R13F, for which the abundance fitness was -0.247 ± 0.055.

For R13H, the abundance fitness came to 0.151 ± 0.13.

As for R13N, the abundance fitness was -0.119 ± 0.13.

For the variant P62M, the abundance fitness is -0.56 ± 0.046.

P62E: the abundance fitness is -0.23 ± 0.049.

On to P62H, for which the abundance fitness was -0.109 ± 0.12.

With P62T, the abundance fitness is -0.221 ± 0.042.

With P62N, the abundance fitness was -0.371 ± 0.094.

Take P62C: the abundance fitness is -0.565 ± 0.053.

K32M: the abundance fitness was -0.048 ± 0.061.

Turning to K32D, the abundance fitness was -0.076 ± 0.048.

For the variant A7D, the abundance fitness is -0.953 ± 0.22.

On to A7L, for which the abundance fitness is -0.581 ± 0.034.

Take A7Q: the abundance fitness was -0.689 ± 0.061.

Consider A7W, for which the abundance fitness was -0.817 ± 0.049.

For the variant A7H, the abundance fitness is -0.707 ± 0.099.

Regarding R1G, the abundance fitness came out at 0.002 ± 0.041.

As for R1E, the abundance fitness was -0.093 ± 0.1.

R1F: the abundance fitness was -0.142 ± 0.092.

For the variant R1M, the abundance fitness was -0.08 ± 0.1.

As for L64V, the abundance fitness is -0.425 ± 0.024.

Turning to L64F, the abundance fitness is -0.412 ± 0.06.

For L64I, the abundance fitness is -0.402 ± 0.098.

S42I: the abundance fitness was -0.363 ± 0.15.

For S42F, the abundance fitness was -0.225 ± 0.069.

Consider A22Q, for which the abundance fitness was -0.214 ± 0.12.

In the case of A22T, the abundance fitness was -0.207 ± 0.054.

On to A22S, for which the abundance fitness was -0.064 ± 0.035.

As to A22Y, the abundance fitness was -0.115 ± 0.052.

With A22R, the abundance fitness is -0.087 ± 0.037.

Consider A22F, for which the abundance fitness is -0.163 ± 0.034.

With R9A, the abundance fitness was -0.045 ± 0.077.

In the case of R9M, the abundance fitness is 0.111 ± 0.045.

Consider R9F, for which the abundance fitness was -0.33 ± 0.039.

As to R9K, the abundance fitness was determined as 0.022 ± 0.047.

As for A29W, the abundance fitness is -0.181 ± 0.074.

A29D: the abundance fitness was -0.25 ± 0.12.

As for A29V, the abundance fitness was -0.2 ± 0.072.

A29S: the abundance fitness was -0.09 ± 0.086.

For the variant S49W, the abundance fitness is -0.884 ± 0.31.

Regarding S49Q, the abundance fitness was -0.027 ± 0.075.

Take S49N: the abundance fitness is -0.005 ± 0.13.

Take S49E: the abundance fitness was found to be 0.102 ± 0.071.

For S49Y, the abundance fitness was -0.209 ± 0.15.

With A5G, the abundance fitness is -0.033 ± 0.085.

Consider A5F, for which the abundance fitness was -0.605 ± 0.21.

Consider A5E, for which the abundance fitness is -0.155 ± 0.26.

For the variant A5V, the abundance fitness is -0.051 ± 0.096.

For A5C, the abundance fitness is -0.552 ± 0.3.

Regarding F6K, the abundance fitness is -1.03 ± 0.42.

Turning to F6S, the abundance fitness is -0.338 ± 0.3.

Turning to K61Y, the abundance fitness is -0.038 ± 0.058.

For the variant K61Q, the abundance fitness was -0.222 ± 0.11.

Turning to E72M, the abundance fitness is -0.36 ± 0.038.

For the variant E72Y, the abundance fitness is -0.544 ± 0.054.

For E72C, the abundance fitness is -0.175 ± 0.051.

With E72R, the abundance fitness was -0.526 ± 0.035.

As for E72V, the abundance fitness is -0.265 ± 0.025.

As for E72H, the abundance fitness is -0.378 ± 0.053.

E72W: the abundance fitness was -0.325 ± 0.037.

With E72N, the abundance fitness is -0.192 ± 0.057.

Consider A26W, for which the abundance fitness was -0.152 ± 0.036.

A26E: the abundance fitness is -0.051 ± 0.044.

For the variant A26P, the abundance fitness was -0.472 ± 0.053.

For A26S, the abundance fitness was -0.012 ± 0.025.

For A26T, the abundance fitness was -0.108 ± 0.039.

Take E69Y: the abundance fitness is -0.059 ± 0.069.

Regarding E69M, the abundance fitness is -0.041 ± 0.048.

Take E69G: the abundance fitness was -0.194 ± 0.049.

E69N: the abundance fitness was -0.06 ± 0.11.

For the variant E69R, the abundance fitness is -0.065 ± 0.033.

Turning to E69D, the abundance fitness was -0.039 ± 0.078.

E69F: the abundance fitness was -0.2 ± 0.06.

E69K: the abundance fitness was -0.041 ± 0.05.

Regarding C45F, the abundance fitness was -0.001 ± 0.038.

With I58M, the abundance fitness is 0.153 ± 0.12.

For I58D, the abundance fitness was found to be 0.215 ± 0.45.

I58N: the abundance fitness was -0.049 ± 0.05.

For D23N, the abundance fitness is -0.112 ± 0.1.

For the variant D23H, the abundance fitness was -0.017 ± 0.23.
